Source: patent publication US20180086836A1 (GLENMARK PHARMACEUTICALS S A, published 2018)
Numbering of substitutions follows the chain as printed. Values belong to the binder of their own block, whether it stands above or below them.

Tests used:
[1] = target: T1, recombinant human N-terminal CCR6 Fc (human); test: SPR (Biacore) off-rate ranking of scFv on the human CCR6 N-terminal Fc fusion
T1 construct: also called human CCR6-Fc; hsCCR6-Nter-Fc

[2] = target: T1, recombinant human N-terminal CCR6 Fc; test: direct ELISA, Fc fusion coated at 2 µg/ml, anti-human F(ab')2-HRP
Method: (§1) FIG. 8: Direct binding ELISA on immobilized recombinant human N-terminal CCR6 Fc. Binding of humanized 4H11 H5L1 antibody on human N terminus fragment of CCR6 was measured by direct ELISA. Various concentrations (ranging from 10 to 0.00006 μg/ml) of humanized 4H11 H5L1 in IgG1 and IgG4HS backbones were incubated with 2 μg/ml of either recombinant human N terCCR6-Fc tagged protein (FIG. 8A) or recombinant cynomologus N-terminal peptide Fc (FIG. 8B), coated overnight at 4° C. in a 96-well plate. Binding of humanized 4H11 H5L1 antibody to Nter CCR6-Fc protein was detected by horseradish peroxidase (HRP)-conjugated anti-human (Fab)′2-specific antibody.
(§2) A binding ELISA was performed to test the reactivity of 4H11 VH5/VL1 IgG1 and 4H11 VH5/VL1 IgG4HS antibodies on peptides consisting of the N-terminal region of CCR6 from human and cynomologus species. Briefly, 96 well-microtiter plates (Costar USA, distributor VWR AG, Nyon, Switzerland) were coated with 100 μl of recombinant human and cynomologus N-terminus peptide-Fc at 2 μg/ml in PBS. Plates were incubated overnight at 4° C. and were then blocked with PBS 2% BSA (Bovine Serum Albumine, PAA Laboratories, Pasching, Austria) at room temperature (RT) for one hour. The blocking solution was removed and various concentrations of 4H11 VH5/VL1 IgG1 and 4H11 VH5/VL1 IgG4HS were added. The plates were incubated at RT for 1 hour, then washed six times with PBS 0.01% Tween-20 (Sigma-Aldrich Chemie GmbH, Buchs, Switzerland) and a goat-anti human Ig F(ab′)2 fragment specific-HRP (Jackson ImmunoResearch Europe Ltd, Newmarket, UK). After washing, the plates were incubated with TMB substrate (Bio-Rad Laboratories AG, Reinach, Switzerland) to reveal antibody binding. The reaction was stopped by adding 2M H₂SO₄ and the optical density was read at 450 nm (OD 450 nm) on a Synergy HT2 spectrophotometer (Biotek, USA; distributor: WITTEC AG, Littau, Switzerland).

[3] = target: T2, recombinant cynomologus N-terminal CCR6 peptide Fc (cynomolgus monkey; human); test: as above
T2 construct: It differs from the human construct only in the CCR6 N-terminus; also called Cyno CCR6-Fc; cynoCCR6-Nter-Fc
Method: as §1, §2

human CCR6 [4] = target: T3, human CCR6 (human, UniProt P51684 1-374); test: flow cytometry on BAF cells transfected with human CCR6, hybridoma supernatant, anti-mouse IgG-PE
T3 construct: Full length human CCR6 on transfected BAF or CHO cells, or native on human PBMCs; also called hsCCR6; CCR6 receptor
T3 sequence: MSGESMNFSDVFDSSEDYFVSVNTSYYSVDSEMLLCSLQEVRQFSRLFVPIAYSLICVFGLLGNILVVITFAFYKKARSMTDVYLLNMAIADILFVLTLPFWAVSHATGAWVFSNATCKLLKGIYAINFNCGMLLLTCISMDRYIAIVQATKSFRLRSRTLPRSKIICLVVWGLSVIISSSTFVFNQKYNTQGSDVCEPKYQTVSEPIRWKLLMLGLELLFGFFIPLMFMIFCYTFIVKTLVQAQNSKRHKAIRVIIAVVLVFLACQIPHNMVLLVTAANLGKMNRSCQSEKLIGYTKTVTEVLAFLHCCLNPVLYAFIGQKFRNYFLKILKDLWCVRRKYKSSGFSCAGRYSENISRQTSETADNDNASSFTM
Method: Antibody titers, specificity and production by hybridomas and recombinant antibody candidates were determined by flow cytometry. Briefly, BAF cells transfected with human CCR6 (Generation of these transfected cells is detailed in example 1) were cultured and 2×10⁵ cells were distributed in a 96 well V bottom plate (TPP, Trasadingen, Switzerland), and centrifuged for three minutes at 1300 rpm; supernatants were discarded, cells were collected and analyzed by flow cytometry as described below. Cells were resuspended in 50 μl of hybridoma supernatant or in 50 μl of FACS buffer (PBS, 2% FBS, 10% Versene (Invitrogen, USA)) with 5 μg/mL of isotype control or commercial mouse anti-human CCR6 antibody (clone 11A9, BD Biosciences, Allschwil, Switzerland). Cells were incubated for 30 minutes on ice, washed two times and resuspended in 50 μl of FACS buffer. An anti-mouse IgG-Phycoerithrin-PE (BD Biosciences, Allschwil, Switzerland) diluted 1/200 was used to detect CCR6-specific mouse hybridoma and the isotype control antibody. Cells were incubated for 15 minutes on ice, washed once, resuspended in 400 μl of FACS buffer and analyzed on the FACS instrument (Cyan, Beckman Coulter International S.A., Nyon, Switzerland).

[5] = target: T1, recombinant human N-terminal CCR6 Fc; test: SPR (BIAcore 2000), Fc-fused peptide immobilized on CM5 chip, antibody as analyte, bivalent analyte model
Method: (§3) Kinetic binding affinity constants (KD) were measured on Fc-fused huCCR6 N-terminal and cynoCCR6 N-terminal peptides with the 4H11 VH5/VL1 IgG4hs antibody as analyte. Same measurements were performed using the 4H11 VH5/VL1 IgG1 antibody and chimeric 4H11 antibody for comparison. Measurements were conducted on a BIAcore 2000 (GE Healthcare—BIAcore, GE Healthcare Europe GmbH, Glattbrugg, Switzerland) at room temperature, and analyzed with the BiaEvaluation software (BIAcore; v4.1, GE Healthcare Europe GmbH) using a bivalent analyte kinetic affinity model.
(§4) A CM5 research grade sensor chip (GE Healthcare Europe GmbH; ref. BR-1000-14) was activated by injecting 35 μl of a 1:1 N-hydroxysulfosuccinimide (NHS)/1-Ethyl-3-[3-dimethylaminopropyl]carbodiimide Hydrochloride (EDC) solution (v/v; 5 μl/min flow-rate; on flow paths 1 and 2). Fc-fused human or cynomologus CCR6 N-terminal peptides were diluted to a final concentration of 25 nM in acetate buffer pH 4.5 (GE Healthcare Europe GmbH, BR-1003-50; one pH unit below pI) and subsequently immobilized on the previously activated CM5 sensor chip by injecting 20 μl on both flow path 1 and 2 (5 μl/min); this corresponded to approximately 300 response units (RUs). The human or cynomologus CCR6 N-terminal peptides coupled CM5 sensor chip was then deactivated by injecting 35 μl of ethanolamine solution (5 μl/min). […]

[6] = target: T2, recombinant cynomologus N-terminal CCR6 …; test: as above
Method: as §3, §4

[7] = target: T1, recombinant human N-terminal CCR6 Fc; test: SPR (BIAcore 2000), Fc-fused human CCR6 N-terminal peptide immobilised on CM5, antibody as analyte, bivalent analyte model
Method: as §3, §4

[8] = target: T2, recombinant cynomologus N-terminal CCR6 …; test: SPR (BIAcore 2000), Fc-fused cynomolgus CCR6 N-terminal peptide immobilised on CM5, antibody as analyte, bivalent analyte model
Method: as §3, §4

human CCR6 [9] = target: T3, human CCR6; test: flow cytometry blocking assay on CCR6-transfected BAF cells; blocked ligand: recombinant human CCL20 at 0.5 µg/ml, detected with biotinylated anti-CCL20 and streptavidin-APC
Method: Cells transfected with CCR6 were incubated at 4° C. for 20 minutes with humanized 4H11-VH5/VL1 serially diluted (from 100 to 0.00001 μg/ml) in FACS buffer containing 0.1% of azide. Cells were centrifuged and incubated at 4° C. for 20 minutes with 0.5 μg/ml of recombinant human CCL20. To detect CCL20 bound to CCR6, cells were incubated with a biotinylated goat anti-human CCL20, followed by incubation with Allophycocyanin (APC)-labelled Streptavidin diluted at 1/100 in FACS buffer containing 0.1% of azide. To evaluate blocking potential of humanized 4H11 VH5/VL1 IgG4HS, percentage of CCL20 was measured at each concentration of antibody. Maximum binding activity of CCL20 to CCR6 was calculated as a percentage of that seen for the isotype control.
To determine whether 4H11 VH5/VL1 IgG4HS neutralizes CCR6-mediated biological function through a direct inhibition of CCL20-CCR6 interaction, an assay using flow cytometry approach was set up. Briefly, BAF cells transfected with CCR6 were counted and diluted at 1*10⁶ cells/ml in FACS buffer containing 0.1% of azide. […] Then, CCL20 was detected using a biotinylated anti-human CCL20 (R&D Systems, clone BAF360) followed by allophycocyanin (APC)-labelled streptavidin diluted in FACS buffer+0.1% azide at 1 μg/ml and 1/100, respectively. Cells were washed two times in FACS buffer, 0.1% azide and samples were analysed by flow cytometry. […]

B1: VH5/VL1-L3-G8 scFv variant (scFv)
scFv: EVQLVESGGGLVQPGGSLRLSCAASGFSFSDYYMYWVRQAPGKGLEWVSYITNGGITYYPDSVKGRFTISRDNSKNTLYLQMNSLRAEDTAVYYCTSPLRGAWFAYWGQGTLVTVSSGGGGSGGGGSGGGGSTDVVMTQSPLSLPVTLGQPASISCRSSQSIVHSNGNTYLEWYQQRPGQSPRLLIYKVSNRFSGVPDRFSGSGSGTDFTLKISRVEAEDVGVYYCFQGTYLPLTFGQGTKLEIK
- binding result [1]: binds

B4: 4H11 VH5/VL1 IgG4HS antibody (antibody, V domains shown)
VH: EVQLVESGGGLVQPGGSLRLSCAASGFSFSDYYMYWVRQAPGKGLEWVSYITNGGITYYPDSVKGRFTISRDNSKNTLYLQMNSLRAEDTAVYYCTSPLRGAWFAYWGQGTLVTVSS
VL: DVVMTQSPLSLPVTLGQPASISCRSSQSIVHSNGNTYLEWYQQRPGQSPRLLIYKVSNRFSGVPDRFSGSGSGTDFTLKISRVEAEDVGVYYCFQGSHVPLTFGQGTKLEIK
notes: also called humanized 4H11 H5L1 IgG4HS; humanized 4H11-VH5/VL1
- EC50 (read off the curve) [2]: ~0.06 µg/mL
- EC50 (read off the curve) [3]: ~0.2 µg/mL
- Kd [5]: 1.56 nM
- Kd [6]: 4.67 nM
- koff [7]: 0.000798 s⁻¹
- kon [7]: 510000 M⁻¹ s⁻¹
- koff [8]: 0.0015 s⁻¹
- kon [8]: 320000 M⁻¹ s⁻¹
- IC50 (read off the curve) (human CCR6 [9]): ~0.5 µg/mL

Further lines, results first:

- EC50 (read off the curve) [2]: ~0.07 µg/mL
- EC50 (read off the curve) [3]: ~0.2 µg/mL
B2: 4H11 VH5/VL1 IgG1 antibody (antibody, V domains shown)
VH: B4 VH
VL: DVVMTQSPLSLPVTLGQPASISCRSSQSIVHSNGNTYLEWYQQRPGQSPRLLIYKVSNRFSGVPDRFSGSGSGTDFTLKISRVEAEDVGVYYCFQGSHVPLTFGQGTKLEIKR
notes: also called H5/L1; VH5/VL1 antibody

- binding result (human CCR6 [4]): binds
B3: 4H11 (antibody, V domains shown)
VH: EVKLVESGGGLVQPGGSLKLSCATSGFSFSDYYMYWIRQTPEKRLEWVAYITNGGITYYPDTVKGRFTISRDNAKNTLYLQMSRLRSEDTAMYYCTSPLRGAWFAYWGQGTLVTVSS
VL: B4 VL with V3I, T14S, Q17D, P18Q, Q42L, R44K, R50K, V88L, V90L, Q105A
notes: parent of the chimeric 4H11 antibody m1; also called murine antibody 4H11; hybridoma clone 4H11
